Values of other authors, collected in patent US20130145495A1, “ENHANCED CARBON FIXATION IN PHOTOSYNTHETIC HOSTS” (DONALD DANFORTH PLANT SCIENCE CENTER, priority 2010, published 2013).

B1: hCAVII: human α-carbonic anhydrase isoenzyme VII, cytosol (protein, UniProt P43166 1-264, looked up)
Carbonic anhydrase 7: MTGHHGWGYGQDDGPSHWHKLYPIAQGDRQSPINIISSQAVYSPSLQPLELSYEACMSLSITNNGHSVQVDFNDSDDRTVVTGGPLEGPYRLKQFHFHWGKKHDVGSEHTVDGKSFPSELHLVHWNAKKYSTFGEAASAPDGLAVVGVFLETGDEHPSMNRLTDALYMVRFKGTKAQFSCFNPKCLLPASRHYWTYPGSLTTPPLSESVTWIVLREPICISERQMGKFRSLLFTSEDDERIHMVNNFRPPQPLKGRVVKASFRA
B2: hCAXV: α-carbonic anhydrase isoenzyme XV, membrane (protein, UniProt Q99N23 19-324, looked up)
Carbonic anhydrase 15: VDSSGTWCYDSQDPKCGPAHWKELAPACGGPTQSPINIDLRLVQRDYTLKPFIFQGYDSAPQDPWVLENDGHTVLLRVNSCQQNCPAIRGAGLPSPEYRLLQLHFHWGSPGHQGSEHSLDEKHGSMEMHMVHMNTKYQSMEDARSQPDGFAILAVLLVEEDRDNTNFSAIVSGLKNLSSPGVAVNLTSTFALASLLPSALRLLRYYRYSGSLTTPGCEPAVLWTVFENTVPIGHAQVVQFQAVLQTGPPGLHPRPLTSNFRPQQPLGGRRISASPEASVRSSVSTLPCLHLALVGLGVGLRLWQGP
B3: hCAXIV: human α-carbonic anhydrase isoenzyme XIV, transmembrane (protein, UniProt Q9ULX7 16-337, looked up)
Carbonic anhydrase 14: ADGGQHWTYEGPHGQDHWPASYPECGNNAQSPIDIQTDSVTFDPDLPALQPHGYDQPGTEPLDLHNNGHTVQLSLPSTLYLGGLPRKYVAAQLHLHWGQKGSPGGSEHQINSEATFAELHIVHYDSDSYDSLSEAAERPQGLAVLGILIEVGETKNIAYEHILSHLHEVRHKDQKTSVPPFNLRELLPKQLGQYFRYNGSLTTPPCYQSVLWTVFYRRSQISMEQLEKLQGTLFSTEEEPSKLLVQNYRALQPLNQRMVFASFIQAGSSYTTGEMLSLGVGILVGCLCLLLAVYFIARKIRKKRLENRKSVVFTSAQATTEA
B4: hCAVI: human α-carbonic anhydrase isoenzyme VI, secreted (protein, UniProt P23280 18-308, looked up)
Carbonic anhydrase 6: QHVSDWTYSEGALDEAHWPQHYPACGGQRQSPINLQRTKVRYNPSLKGLNMTGYETQAGEFPMVNNGHTVQISLPSTMRMTVADGTVYIAQQMHFHWGGASSEISGSEHTVDGIRHVIEIHIVHYNSKYKSYDIAQDAPDGLAVLAAFVEVKNYPENTYYSNFISHLANIKYPGQRTTLTGLDVQDMLPRNLQHYYTYHGSLTTPPCTENVHWFVLADFVKLSRTQVWKLENSLLDHRNKTIHNDYRRTQPLNHRVVESNFPNQEYTLGSEFQFYLHKIEEILDYLRRALN
B5: hCAIV: human α-carbonic anhydrase isoenzyme IV, membrane (protein, UniProt P22748 19-284, looked up)
Carbonic anhydrase 4: AESHWCYEVQAESSNYPCLVPVKWGGNCQKDRQSPINIVTTKAKVDKKLGRFFFSGYDKKQTWTVQNNGHSVMMLLENKASISGGGLPAPYQAKQLHLHWSDLPYKGSEHSLDGEHFAMEMHIVHEKEKGTSRNVKEAQDPEDEIAVLAFLVEAGTQVNEGFQPLVEALSNIPKPEMSTTMAESSLLDLLPKEEKLRHYFRYLGSLTTPTCDEKVVWTVFREPIQLHREQILAFSQKLYYDKEQTVSMKDNVRPLQQLGQRTVIKS
B6: hCAIII: human α-carbonic anhydrase isoenzyme III, cytosol (protein, UniProt P07451 2-260, looked up)
Carbonic anhydrase 3: AKEWGYASHNGPDHWHELFPNAKGENQSPVELHTKDIRHDPSLQPWSVSYDGGSAKTILNNGKTCRVVFDDTYDRSMLRGGPLPGPYRLRQFHLHWGSSDDHGSEHTVDGVKYAAELHLVHWNPKYNTFKEALKQRDGIAVIGIFLKIGHENGEFQIFLDALDKIKTKGKEAPFTKFDPSCLFPACRDYWTYQGSFTTPPCEECIVWLLLKEPMTVSSDQMAKLRSLLSSAENEPPVPLVSNWRPPQPINNRVVRASFK
B7: hCAVB: human α-carbonic anhydrase isoenzyme VB, mitochondria (protein, UniProt Q9Y2D0 34-317, looked up)
Carbonic anhydrase 5B, …: CSLYTCTYKTRNRALHPLWESVDLVPGGDRQSPINIRWRDSVYDPGLKPLTISYDPATCLHVWNNGYSFLVEFEDSTDKSVIKGGPLEHNYRLKQFHFHWGAIDAWGSEHTVDSKCFPAELHLVHWNAVRFENFEDAALEENGLAVIGVFLKLGKHHKELQKLVDTLPSIKHKDALVEFGSFDPSCLMPTCPDYWTYSGSLTTPPLSESVTWIIKKQPVEVDHDQLEQFRTLLFTSEGEKEKRMVDNFRPLQPLMNRTVRSSFRHDYVLNVQAKPKPATSQATP
B8: hCAXII: human α-carbonic anhydrase isoenzyme XII, transmembrane (protein, UniProt O43570 25-354, looked up)
Carbonic anhydrase 12: APVNGSKWTYFGPDGENSWSKKYPSCGGLLQSPIDLHSDILQYDASLTPLEFQGYNLSANKQFLLTNNGHSVKLNLPSDMHIQGLQSRYSATQLHLHWGNPNDPHGSEHTVSGQHFAAELHIVHYNSDLYPDASTASNKSEGLAVLAVLIEMGSFNPSYDKIFSHLQHVKYKGQEAFVPGFNIEELLPERTAEYYRYRGSLTTPPCNPTVLWTVFRNPVQISQEQLLALETALYCTHMDDPSPREMINNFRQVQKFDERLVYTSFSQVQVCTAAGLSLGIILSLALAGILGICIVVVVSIWLFRRKSIKKGDNKGVIYKPATKMETEAHA
B9: hCAVA: human α-carbonic anhydrase isoenzyme VA, mitochondria (protein, UniProt P35218 39-305, looked up)
Carbonic anhydrase 5A, …: CAWQTSNNTLHPLWTVPVSVPGGTRQSPINIQWRDSVYDPQLKPLRVSYEAASCLYIWNTGYLFQVEFDDATEASGISGGPLENHYRLKQFHFHWGAVNEGGSEHTVDGHAYPAELHLVHWNSVKYQNYKEAVVGENGLAVIGVFLKLGAHHQTLQRLVDILPEIKHKDARAAMRPFDPSTLLPTCWDYWTYAGSLTTPPLTESVTWIIQKEPVEVAPSQLSAFRTLLFSALGEEEKMMVNNYRPLQPLMNRKVWASFQATNEGTRS

system: carbonic anhydrase

Molecule | Kcat
hCAXIII: human α-carbonic anhydrase isoenzyme XIII, cytosol | 150000 s⁻¹
hCAI: human α-carbonic anhydrase isoenzyme I, cytosol | 200000 s⁻¹
B1 | 950000 s⁻¹
B2 | 470000 s⁻¹
B3 | 310000 s⁻¹
B4 | 340000 s⁻¹
B5 | 1e+06 s⁻¹
B6 | 10000 s⁻¹
B7 | 950000 s⁻¹
B8 | 420000 s⁻¹
B9 | 290000 s⁻¹
